First the molecules themselves.
T1: biotin-labeled 16-mer BECN1 S2E LIR peptide (human, also: biotin label, place not given here)
T1 chain: STEEANEFTLIGEASD

T2: biotin-labeled 16-mer PIK3C3 S2E LIR peptide (human, also: biotin label, place not given here)
T2 chain: SEPILTEFELVKVPDP

B1: BECN1 89-106 18-mer array peptide, G101E (peptide)
peptide: MSTESANSFTLIEEASDG
notes: BECN1, human, amino acids 89-106; source: synthetic peptide, SPOT synthesis on cellulose membrane
B2: PIK3C3 242-259 18-mer array peptide, L252I (peptide)
peptide: ESSPILTSFEIVKVPDPQ
notes: PIK3C3, human, amino acids 242-259; source: synthetic peptide, SPOT synthesis on cellulose membrane
B3: BECN1 89-106 18-mer array peptide, I100L (peptide)
peptide: MSTESANSFTLLGEASDG
notes: as for B1
B4: ATG14 428-445 18-mer array peptide, L438F (peptide)
peptide: ETDLGTDWENFPSPRFCD
notes: ATG14, human, amino acids 428-445; source: synthetic peptide, SPOT synthesis on cellulose membrane
B5: ATG14 428-445 18-mer array peptide, E436V (peptide)
peptide: ETDLGTDWVNLPSPRFCD
notes: as for B4
B6: BECN1 89-106 18-mer array peptide, wild type (peptide)
peptide: MSTESANSFTLIGEASDG
notes: BECN1, human, amino acids 89-106; also called BECN1 LIR; source: synthetic peptide, SPOT synthesis on cellulose membrane
B7: PIK3C3 242-259 18-mer array peptide, E251L (peptide)
peptide: ESSPILTSFLLVKVPDPQ
notes: as for B2
B8: PIK3C3 242-259 18-mer array peptide, E251I (peptide)
peptide: ESSPILTSFILVKVPDPQ
notes: as for B2
B9: BECN1 89-106 18-mer array peptide, S96D (peptide)
peptide: MSTESANDFTLIGEASDG
notes: as for B1
B10: ATG14 428-445 18-mer array peptide, W435F (peptide)
peptide: ETDLGTDFENLPSPRFCD
notes: as for B4
B11: PIK3C3 242-259 18-mer array peptide, E251F (peptide)
peptide: ESSPILTSFFLVKVPDPQ
notes: as for B2
B12: BECN1 89-106 18-mer array peptide, L99W (peptide)
peptide: MSTESANSFTWIGEASDG
notes: as for B1
B13: BECN1 89-106 18-mer array peptide, F97W (peptide)
peptide: MSTESANSWTLIGEASDG
notes: as for B1
B14: BECN1 89-106 18-mer array peptide, T98E (peptide)
peptide: MSTESANSFELIGEASDG
notes: as for B1
B15: PIK3C3 242-259 18-mer array peptide, E251V (peptide)
peptide: ESSPILTSFVLVKVPDPQ
notes: as for B2
B16: BECN1 89-106 18-mer array peptide, S96E (peptide)
peptide: MSTESANEFTLIGEASDG
notes: as for B1
B17: PIK3C3 242-259 18-mer array peptide, L252W (peptide)
peptide: ESSPILTSFEWVKVPDPQ
notes: as for B2
B18: BECN1 89-106 18-mer array peptide, S96W (peptide)
peptide: MSTESANWFTLIGEASDG
notes: as for B1
B19: BECN1 89-106 18-mer array peptide, S96A (peptide)
peptide: MSTESANAFTLIGEASDG
notes: as for B1
B20: BECN1 89-106 18-mer array peptide, S96T (peptide)
peptide: MSTESANTFTLIGEASDG
notes: as for B1
B21: BECN1 89-106 18-mer array peptide, T98V (peptide)
peptide: MSTESANSFVLIGEASDG
notes: as for B1
B22: BECN1 89-106 18-mer array peptide, L99I (peptide)
peptide: MSTESANSFTIIGEASDG
notes: as for B1
B23: BECN1 89-106 18-mer array peptide, T98I (peptide)
peptide: MSTESANSFILIGEASDG
notes: as for B1
B24: BECN1 89-106 18-mer array peptide, G101P (peptide)
peptide: MSTESANSFTLIPEASDG
notes: as for B1
B25: ATG14 428-445 18-mer array peptide, E436I (peptide)
peptide: ETDLGTDWINLPSPRFCD
notes: as for B4
B26: BECN1 89-106 18-mer array peptide, T98C (peptide)
peptide: MSTESANSFCLIGEASDG
notes: as for B1
B27: PIK3C3 242-259 18-mer array peptide, F250W (peptide)
peptide: ESSPILTSWELVKVPDPQ
notes: as for B2
B28: ATG14 428-445 18-mer array peptide, wild type (peptide)
peptide: ETDLGTDWENLPSPRFCD
notes: ATG14, human, amino acids 428-445; also called ATG14 LIR; source: synthetic peptide, SPOT synthesis on cellulose membrane
B29: PIK3C3 242-259 18-mer array peptide, wild type (peptide)
peptide: ESSPILTSFELVKVPDPQ
notes: PIK3C3, human, amino acids 242-259; also called PIK3C3 LIR; source: synthetic peptide, SPOT synthesis on cellulose membrane
B30: ATG14 428-445 18-mer array peptide, D434E (peptide)
peptide: ETDLGTEWENLPSPRFCD
notes: as for B4
B31: BECN1 89-106 18-mer array peptide, S96G (peptide)
peptide: MSTESANGFTLIGEASDG
notes: as for B1
B32: BECN1 89-106 18-mer array peptide, G101D (peptide)
peptide: MSTESANSFTLIDEASDG
notes: as for B1
B33: PIK3C3 242-259 18-mer array peptide, L252F (peptide)
peptide: ESSPILTSFEFVKVPDPQ
notes: as for B2
B34: PIK3C3 242-259 18-mer array peptide, L252V (peptide)
peptide: ESSPILTSFEVVKVPDPQ
notes: as for B2
B35: BECN1 89-106 18-mer array peptide, S96C (peptide)
peptide: MSTESANCFTLIGEASDG
notes: as for B1
B36: PIK3C3 242-259 18-mer array peptide, L252Y (peptide)
peptide: ESSPILTSFEYVKVPDPQ
notes: as for B2
B37: ATG14 428-445 18-mer array peptide, W435Y (peptide)
peptide: ETDLGTDYENLPSPRFCD
notes: as for B4
B38: PIK3C3 242-259 18-mer array peptide, V253I (peptide)
peptide: ESSPILTSFELIKVPDPQ
notes: as for B2
B39: BECN1 89-106 18-mer array peptide, L99F (peptide)
peptide: MSTESANSFTFIGEASDG
notes: as for B1
B40: biotin-labeled 16-mer ATG14 LIR peptide (peptide)
chain: ETDLGTDWENLPSPRF
modifications: also: biotin label, place not given here
B41: biotin-labeled 16-mer PIK3C3 LIR peptide (peptide)
chain: SSPILTSFELVKVPDP
modifications: also: biotin label, place not given here
B42: biotin-labeled 16-mer BECN1 LIR peptide (peptide)
chain: STESANSFTLIGEASD
modifications: also: biotin label, place not given here
B43: recombinant LC3C (biolayer interferometry) (natural protein, UniProt Q9BXW4 1-126, looked up)
chain: MPPPQKIPSVRPFKQRKSLAIRQEEVAGIRAKFPNKIPVVVERYPRETFLPPLDKTKFLVPQELTMTQFLSIIRSRMVLRATEAFYLLVNNKSLVSMSATMAEIYRDYKDEDGFVYMTYASQETFG
notes: LC3C; construct of the BLI experiment not described; source: recombinant
B44: recombinant GABARAP (biolayer interferometry) (natural protein, UniProt O95166 1-117, looked up)
chain: MKFVYKEEHPFEKRRSEGEKIRKKYPDRVPVIVEKAPKARIGDLDKKKYLVPSDLTVGQFYFLIRKRIHLRAEDALFFFVNNVIPPTSATMGQLYQEHHEEDFFLYIAYSDESVYGL
notes: GABARAP; construct of the BLI experiment not described; source: recombinant

From article PMC6613885 (Autophagy, 2019) come the findings set out here.

As a reminder, the Kd is the equilibrium constant for the complex coming apart.

Ends that are not written are not given here.

The target of one experiment is T3, GST-GABARAPL1 (UniProt Q9H0R8 1-117).
T3 construct: GABARAPL1 (GABA type A receptor associated protein like 1); also called pDest15 (GST)-GABARAPL1; source: E. coli SoluBL21, purified on glutathione-Sepharose 4 Fast Flow beads
The experiment in a line: peptide or protein array; two-dimensional scan: 18-mer peptides on cellulose membrane, each position replaced with all 20 amino acids; probed with 1 µg/ml GST-GABARAPL1 for 2 h; anti-GST antibody. The note with it: both partners purified.
Consider B1, for which the binding result was “binds”. As to B2, the binding result is given as “binds”. With B3, the binding result is listed as “binds”. With B4, the binding result is “binds”. Same read-out and setting: as for B5, the entry is “binds”; as for B6, “binds”; as for B7, “binds”. Consider B8, for which the binding result was “binds”. For B9, the binding result is recorded as “binds”.

As to B10, the binding result is on record as “binds”. Take B11: the binding result is given as “binds”. With B12, the binding result is “binds”. The same measure, in the same setting: for B13 the value was “binds”.

Take B14: the binding result is on record as “binds”. As to B15, the binding result is recorded as “binds”.

Consider B16, for which the binding result is given as “binds”. On the same count and under the same terms, for B17 the value was “binds”. Consider B18, for which the binding result is recorded as “binds”. As to B19, the binding result was “binds”. B20: the binding result is given as “binds”. B21: the binding result is listed as “binds”. The same measure, in the same setting: for B22 the value was “binds”; for B23, “binds”. For B24, the binding result is “binds”.

Turning to B25, the binding result is listed as “binds”. For B26, the binding result was “binds”. Take B27: the binding result is “binds”. As for B28, the binding result is “binds”. B29: the binding result is on record as “binds”. For B30, the binding result was “binds”. Turning to B31, the binding result is given as “binds”. B32: the binding result was “binds”. For the molecule B33, the binding result was “binds”. On to B34, for which the binding result was “binds”. With B35, the binding result was “binds”. On to B36, for which the binding result is “binds”. With B37, the binding result is given as “binds”. In the case of B38, the binding result is on record as “binds”.

For the molecule B39, the binding result is listed as “binds”.

Another experiment concerns the target B43. Description: BLI; biotin-LIR peptides (50 µg/ml) on streptavidin biosensors, Atg8-family protein in solution at different concentrations; Octet Red 96; 25°C; global fit, 1:1 model. The note with it: both partners purified.
For the molecule B40, the Kd worked out at 5.85 µM.

Another experiment concerns the target B44. The experiment is described as above. The note with it: both partners purified.
Turning to B40, the Kd came to 2.85 µM. Same read-out and setting: as for B41, the figure is 49.5 µM.

On to B42, for which the Kd was 10.5 µM.

For a further experiment, the target named is T1, biotin-labeled 16-mer BECN1 S2E LIR …. The description is as above. The note with it: both partners purified.
With B43, the “fold increase in binding affinity over the wild-type LIR peptide” value worked out at 8 fold.

Regarding B44, the “fold increase in binding affinity over the wild-type LIR peptide” value is 3 fold.

Another experiment deals with T2, biotin-labeled 16-mer PIK3C3 S2E LIR …. The experiment is described as above. The note with it: both partners purified.
For B43, the “fold increase in binding over the wild-type LIR peptide” value amounted to 15 fold. On to B44, for which the “fold increase in binding over the wild-type LIR peptide” value is 17 fold.

The target in a further experiment is recombinant GABARAPL1 (biolayer interferometry) (UniProt Q9H0R8 1-117). The description is as above. The note with it: both partners purified.
Chain of recombinant GABARAPL1 (biolayer interferometry) (Q9H0R8 whole entry, looked up): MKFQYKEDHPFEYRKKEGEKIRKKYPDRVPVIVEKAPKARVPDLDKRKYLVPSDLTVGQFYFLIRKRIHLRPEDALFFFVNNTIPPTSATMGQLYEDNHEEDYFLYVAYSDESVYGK
Regarding B40, the Kd was determined as 1.9 µM. Take B41: the Kd came to 65 µM. Take B42: the Kd was found to be 7.95 µM.
